Test results published in US12653899B2, “Multi-targeted, tunable, sustained delivery of payloads to charged avascular tissues” (Massachusetts Institute of Technology, priority 2019, dated 2026).

Assays:
[1] = test system: bovine cartilage explants; test: GFP penetration into bovine cartilage explants (confocal microscopy); assay type: in vitro ADME
Procedure: Bovine cartilage explants were incubated for either 24 h or 8 days (37° C., 5% CO2) in 1 μM solutions of the cationic S-GFPs dissolved in PBS+1% BSA. Similarly, explants were placed in 1 μM solutions of the neutral GFPs for either 18 h or 26 h. In a separate series of experiments, bovine cartilage explants were cultured in ultra-low attachment cell culture plates (Corning) for a period of 8 days in 1 μM solutions of cationic S-GFPs dissolved in low glucose (1 g/L) DMEM (with no phenol red) with 10% fetal bovine serum (FBS) supplemented with 2 mM Lglutamine, 100 U/mL penicillin, […] streptomycin, […] amphotericin, 10 mM HEPES buffer, 0.1 mM nonessential amino acids (NEAA) and 0.4 mM proline (37° C., 5% CO2). Media changes were performed every 48 h, and fresh cationic S-GFP were added with each media change. At the end of all such experiments, explants were sectioned longitudinally into […] slices and washed with PBS. Primary bovine chondrocytes were incubated for 24 h (37° C., 5% CO2) in 100 nM solutions of GFPs dissolved in serum-free medium having the same composition as that described in the bovine cartilage harvest section. At the end of 24 h, chondrocytes were washed three times with heparin dissolved in PBS (20 U/mL) to remove non-internalized GFPs, fixed with 4% paraformaldehyde, stained with DAPI and washed with PBS. […]

[2] = test system: human cartilage explants (knee); test: Quantitative uptake of cationic S-GFPs into human knee cartilage explants; assay type: in vitro ADME; conditions: donor knee; PBS+1% BSA or BSF
Description: Two human knee joint distal femurs were obtained through the Gift of Hope Organ and Tissue Donor Network (Itaska, IL). A Collins grade 0 normal knee was from a donor and a near-normal grade 1 from a person. (The Collins visual grading scale grades spans grades 0-4 [20], with grade 0=normal and grade 4=end stage osteoarthritis.) All procedures were approved by the Rush University Medical Center Institutional Review Board (ORA Number: 08082803IRB01-AM01) and the Committee on the Use of Humans as Experimental Subjects at MIT. […]
Experiments to quantify the uptake of GFPs into cartilage were started after the explants had been pre-equilibrated in culture medium for 48 h post-harvest. […] (Standard 96-well cell culture plates were not used because S-GFPs could stick to polystyrene even in the presence of BSA, leading to a loss of protein. In contrast, use of polypropylene with 1% BSA enabled complete recovery of fluorescence). […] At the same time, the fluorescence of the absorption bath was measured using a plate reader (Synergy H1, Biotek Instruments Inc.) (excitation: 485 nm, emission: 528 nm). […] At the end of the desorption in 10×PBS+1% BSA, cartilage explants were weighed and the fluorescence of the desorption bath was measured. […] The uptake ratio was calculated as the ratio of GFP concentration inside cartilage (mol/mg wet weight) to the final absorption bath concentration (mol/mL).

Substance	extent of penetration into cartilage explant ([1]; 24 h in PBS+1% BSA, 1 mm thick bovine explants)	localization within cartilage explant ([1]; by day 8 in PBS+1% BSA, bovine explants)	24 h uptake ratio compared among cationic S-GFPs [2]
+36 GFP: engineered supercharged green fluorescent protein carrier with net positive charge +36, SEQ ID NO: 4	did not	localized primarily inside chondrocytes throughout the tissue thickness	significantly lower compared to the other two GFP variants
+25 GFP: engineered supercharged green fluorescent protein carrier with net positive charge +25, SEQ ID NO: 3			significantly lower compared to the other two GFP variants
